Laboratory results as given in patent US20220135701A1 (Genentech, published 2022).
Blank lines part the entries; values can stand above or below the binder they belong to.

Columns and labels:
mouse MerTK [1] = target: T1, mouse MerTK (mouse, UniProt Q60805 23-496); experiment: SPR BIAcore T200, Ab captured, 37C
T1 construct: also called MuMER
T1 sequence (looked up): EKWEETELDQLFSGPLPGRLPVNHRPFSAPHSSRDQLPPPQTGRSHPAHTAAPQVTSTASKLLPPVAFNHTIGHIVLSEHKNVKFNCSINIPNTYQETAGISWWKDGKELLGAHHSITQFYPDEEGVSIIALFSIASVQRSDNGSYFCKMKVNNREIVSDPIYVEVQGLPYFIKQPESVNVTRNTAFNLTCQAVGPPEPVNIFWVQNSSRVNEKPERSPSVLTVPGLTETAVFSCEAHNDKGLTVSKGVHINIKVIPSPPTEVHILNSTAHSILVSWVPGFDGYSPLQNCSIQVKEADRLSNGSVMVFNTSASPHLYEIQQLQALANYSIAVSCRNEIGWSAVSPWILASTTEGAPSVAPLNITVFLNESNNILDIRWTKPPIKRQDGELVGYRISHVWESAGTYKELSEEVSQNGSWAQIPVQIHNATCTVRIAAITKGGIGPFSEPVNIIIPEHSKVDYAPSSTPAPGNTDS
Experimental: (§1) All binding affinity determinations were obtained using Surface Plasmon Resonance (SPR) measurements from a BIAcore™-T200 instrument. Briefly, each rabbit or humanized antibody was captured to achieve approximately 100 RU (Response Units). Then, 3-fold serial dilutions of MerTK from various species (0.4 nM to 100 nM) diluted in HBS-EP buffer (0.01M HEPES pH 7.4, 0.15M NaCl, 3 mM EDTA and 0.05% v/v surfactant P20) was injected into the BIAcore™-T200 instrument at 25° C. or 37° C. with a flow rate of 30 μl/min. Association rates (kₒₙ) and dissociation rates (koff) were calculated using a simple one-to-one Langmuir binding model (BIAcore T200 evaluation software version 2.0). The equilibrium dissociation constant (KD) was calculated as the ratio koff/kₒₙ.

cynomolgus monkey MerTK [2] = target: T2, cynomolgus monkey MerTK (cynomolgus monkey, UniProt A0A2K5V1H9 32-505); experiment: SPR BIAcore T200, Ab captured, 37C
T2 construct: Soluble analyte in SPR; also called Cyno MerTK
T2 sequence: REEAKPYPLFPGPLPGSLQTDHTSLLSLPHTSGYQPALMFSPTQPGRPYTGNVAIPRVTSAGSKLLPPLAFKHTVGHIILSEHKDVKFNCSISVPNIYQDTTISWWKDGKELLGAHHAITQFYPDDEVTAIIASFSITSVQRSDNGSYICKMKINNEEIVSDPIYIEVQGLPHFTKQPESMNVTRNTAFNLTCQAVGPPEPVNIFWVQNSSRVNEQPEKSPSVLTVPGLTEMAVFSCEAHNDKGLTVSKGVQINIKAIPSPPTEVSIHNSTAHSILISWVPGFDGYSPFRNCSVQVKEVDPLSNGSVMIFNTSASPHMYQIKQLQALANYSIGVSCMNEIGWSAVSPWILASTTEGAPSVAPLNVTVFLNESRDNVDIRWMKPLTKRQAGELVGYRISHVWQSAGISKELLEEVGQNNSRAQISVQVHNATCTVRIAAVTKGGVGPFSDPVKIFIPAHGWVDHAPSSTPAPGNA
Experimental: as §1

rat MerTK = target: T3, rat MerTK (rat, UniProt P57097 23-496, limits assumed); experiment: SPR BIAcore T200, Ab captured, 37C
T3 construct: Soluble analyte in SPR
T3 sequence (looked up): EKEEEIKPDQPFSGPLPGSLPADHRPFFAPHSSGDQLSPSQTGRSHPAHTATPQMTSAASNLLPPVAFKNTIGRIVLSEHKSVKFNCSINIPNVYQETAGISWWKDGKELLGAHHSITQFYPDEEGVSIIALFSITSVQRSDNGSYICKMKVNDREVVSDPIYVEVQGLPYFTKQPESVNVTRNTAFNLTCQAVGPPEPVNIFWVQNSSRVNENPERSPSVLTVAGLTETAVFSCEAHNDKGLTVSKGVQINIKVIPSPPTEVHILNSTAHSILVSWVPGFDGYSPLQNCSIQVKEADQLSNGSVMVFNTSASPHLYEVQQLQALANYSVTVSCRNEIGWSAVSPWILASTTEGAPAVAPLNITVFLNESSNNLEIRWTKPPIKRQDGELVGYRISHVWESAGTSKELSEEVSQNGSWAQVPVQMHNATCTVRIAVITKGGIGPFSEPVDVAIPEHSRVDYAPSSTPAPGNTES
Experimental: as §1

human MerTK [3] = target: T4, human MerTK (human, UniProt Q12866 26-499); experiment: SPR BIAcore T200, Ab captured, 37C
T4 construct: also called HuMER
T4 sequence: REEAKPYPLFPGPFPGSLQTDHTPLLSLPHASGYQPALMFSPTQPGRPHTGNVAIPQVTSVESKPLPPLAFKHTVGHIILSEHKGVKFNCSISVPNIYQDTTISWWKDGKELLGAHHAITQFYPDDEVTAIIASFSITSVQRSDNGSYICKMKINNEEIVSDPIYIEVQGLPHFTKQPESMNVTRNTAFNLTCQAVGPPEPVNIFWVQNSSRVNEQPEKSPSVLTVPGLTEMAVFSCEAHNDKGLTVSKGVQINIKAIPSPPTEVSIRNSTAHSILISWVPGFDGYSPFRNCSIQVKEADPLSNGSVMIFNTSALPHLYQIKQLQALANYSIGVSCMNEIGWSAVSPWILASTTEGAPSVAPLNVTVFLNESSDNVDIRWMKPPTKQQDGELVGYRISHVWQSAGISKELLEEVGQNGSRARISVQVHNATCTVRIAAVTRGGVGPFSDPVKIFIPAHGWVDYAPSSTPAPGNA
Experimental: as §1

[4] = target: T5, human MerTK on human macrophages (human, UniProt Q12866 21-999); experiment: cell-based or functional assay
T5 sequence: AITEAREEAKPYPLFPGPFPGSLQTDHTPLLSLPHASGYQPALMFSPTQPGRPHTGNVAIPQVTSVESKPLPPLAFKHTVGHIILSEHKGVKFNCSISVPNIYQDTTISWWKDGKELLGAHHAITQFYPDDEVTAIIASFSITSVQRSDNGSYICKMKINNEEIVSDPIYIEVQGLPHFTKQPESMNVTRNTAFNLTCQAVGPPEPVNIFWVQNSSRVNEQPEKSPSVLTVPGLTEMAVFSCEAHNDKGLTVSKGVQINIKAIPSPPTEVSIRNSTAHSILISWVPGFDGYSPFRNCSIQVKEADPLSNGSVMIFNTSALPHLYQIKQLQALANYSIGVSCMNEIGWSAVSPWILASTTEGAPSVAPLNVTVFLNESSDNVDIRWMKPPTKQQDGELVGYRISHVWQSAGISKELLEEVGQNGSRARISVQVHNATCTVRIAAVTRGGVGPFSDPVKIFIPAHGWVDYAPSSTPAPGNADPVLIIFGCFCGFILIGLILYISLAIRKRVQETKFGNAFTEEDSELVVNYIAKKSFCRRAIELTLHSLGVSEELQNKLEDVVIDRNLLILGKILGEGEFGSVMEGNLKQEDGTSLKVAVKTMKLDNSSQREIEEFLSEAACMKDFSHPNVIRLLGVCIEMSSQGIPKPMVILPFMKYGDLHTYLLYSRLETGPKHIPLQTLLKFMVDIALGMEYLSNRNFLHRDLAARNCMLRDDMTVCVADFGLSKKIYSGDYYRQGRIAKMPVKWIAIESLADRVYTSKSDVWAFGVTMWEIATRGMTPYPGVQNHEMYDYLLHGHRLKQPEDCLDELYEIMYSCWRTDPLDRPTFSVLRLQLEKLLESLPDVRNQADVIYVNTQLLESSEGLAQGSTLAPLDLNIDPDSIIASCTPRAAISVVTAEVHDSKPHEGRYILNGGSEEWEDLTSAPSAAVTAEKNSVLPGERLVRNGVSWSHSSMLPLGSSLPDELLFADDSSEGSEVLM

HuMER (R26-A499) = target: T6, HuMER (R26-A499) (human, UniProt Q12866 26-499); experiment: SPR BIAcore T200, Ab captured, 25C
T6 construct: Extracellular domain with both Ig-like and both fibronectin-like domains; also called human MerTK extracellular domain
T6 sequence: T4 sequence
Experimental: (§2) Binding affinity determinations were obtained using Surface Plasmon Resonance (SRP) measurements from a BIAcore™-T200 instrument. Briefly, each rabbit antibody was captured to achieve approximately 100 RU (Response Units). Then, 3-fold serial dilutions of the various MerTK domains (0.4 nM to 100 nM) diluted in HBS-EP buffer (0.01M HEPES pH 7.4, 0.15M NaCl, 3 mM EDTA and 0.05% v/v surfactant P20) was injected into the BIAcore™-T200 instrument at 25° C. or 37° C. with a flow rate of 30 μl/min. Association rates (kₒₙ) and dissociation rates (koff) were calculated using a simple one-to-one Langmuir binding model (BIAcore T200 evaluation software version 2.0). The equilibrium dissociation constant (KD) was calculated as the ratio koff/kₒₙ.
(§3) Antibody epitope determination was assessed by BIAcore analysis for rabbit antibodies binding against both the human and mouse MerTK extracellular domain (HuMER R26-A499 and MuMER E23-S496), Ig1&2 domain, Ig1-only domain, and Ig2-only domain (TABLE 18). Human MerTK and its domains are shown in light gray, while mouse MerTK and its domains are shown in dark gray.

MuMER (E23-S496) = target: T7, MuMER (E23-S496) (mouse, UniProt Q60805 23-496); experiment: SPR BIAcore T200, Ab captured, 25C
T7 construct: range 23-496; also called mouse MerTK extracellular domain
T7 sequence (looked up): T1 sequence (looked up)
Experimental: as §2, §3

mouse MerTK [5] = target: T1, mouse MerTK; experiment: SPR BIAcore T200, Ab captured, 25C
Experimental: as §1

cynomolgus monkey MerTK [6] = target: T2, cynomolgus monkey MerTK; experiment: SPR BIAcore T200, Ab captured, 25C
Experimental: as §1

human MerTK [7] = target: T4, human MerTK; experiment: SPR BIAcore T200, Ab captured, 25C
Experimental: as §1

Kd (mouse MerTK [1]): 0.9 nM | Kd (cynomolgus monkey MerTK [2]): 3.2 nM | Kd (rat MerTK): 2.4 nM | Kd (human MerTK [3]): 6.9 nM | IC50 (nM), efferocytosis by human macrophages, Average (3 Donors) [4]: 0.95 nM | IC50 (nM), efferocytosis by human macrophages, Donor A [4]: 0.52 nM | IC50 (nM), efferocytosis by human macrophages, Donor B [4]: 1.2 nM | IC50 (nM), efferocytosis by human macrophages, Donor C [4]: 1.2 nM | Max Inhibition (%), efferocytosis by human macrophages, Average (3 Donors) [4]: 61% | Max Inhibition (%), efferocytosis by human macrophages, Donor A [4]: 64% | Max Inhibition (%), efferocytosis by human macrophages, Donor B [4]: 58% | Max Inhibition (%), efferocytosis by human macrophages, Donor C [4]: 62%
B1: h10C3.v14 (antibody, V domains shown)
VH: EVQLVESGGGLVQPGGSLRLSCAASGFSLSGYTMGWVRQAPGKGLEYIGVISSGGTTYYTNWAKGRFTISKDNSKNTLYLQMGSLRAEDMAVYYCARVAFTAYGGGGFPTLHRLDLWGQGTLVTVSS
VL: DQVLTQSPDSLAVSLGERATINCQSSESVYNNDYLAWYQQKPGQPPKLLIYSASTLASGVPDRFSGSGSGTDFTLTISSLQAEDVAVYYCAGGYLGNNVFGGGTKVEIK
notes: Humanized, human IgG1; also called 10C3 Humanized polished mAb

Kd (HuMER (R26-A499)): 7 nM | Kd (MuMER (E23-S496)): 4.1 nM | Kd (mouse MerTK [1]): 2.4 nM | Kd (cynomolgus monkey MerTK [2]): 5.1 nM | Kd (rat MerTK): 5.8 nM | Kd (human MerTK [3]): 10.9 nM | Kd (mouse MerTK [5]): 4.1 nM | Kd (cynomolgus monkey MerTK [6]): 4.7 nM | Kd (human MerTK [7]): 7 nM
B2: Rbt10F7 (antibody, V domains shown)
VH: QSVEESGGRLVTPGTPLTLTCTVSGFSLSGYAMSWVRQAPGKGLEYIGVISSSGSSYYPSWAKGRFTISKTSTTVDLQITSPTTEDTATYFCARVQFYVGYAVYGYGIIDRLDLWGQGTLVTVSS
VL: AAVLTQTPSPVSATMGGTVSISCQSSKSVYNNNWLSWYQQKPGQPPKLLIYRASTLESGVPSRFKGSGSGTQFTLTISDVHCDDAATYFCAGGYSSSSSANAFGGGTEVVVK
notes: Recombinant rabbit monoclonal antibody, Expi293, protein A purified

Kd (HuMER (R26-A499)): 2.6 nM | Kd (MuMER (E23-S496)): 0.6 nM | Kd (mouse MerTK [1]): 0.6 nM | Kd (cynomolgus monkey MerTK [2]): 2.5 nM | Kd (rat MerTK): 1.7 nM | Kd (human MerTK [3]): 5.1 nM | Kd (mouse MerTK [5]): 0.6 nM | Kd (cynomolgus monkey MerTK [6]): 2.5 nM | Kd (human MerTK [7]): 2.6 nM
B3: Rbt9E3.FN (antibody, V domains shown)
VH: QSVEESGGRLVTPGTPLTLTCTVSGFSLSSNAMSWVRQAPGKGLEWIGIISSSGSTYSASWAKGRFTISKTSTTMDLKITSPTTEDTATYFCARVGFFVGYGAYDYGIIHRLDLWGQGTLVTVSS
VL: AAVLTQTPSPVSAAVGGTVSISCQSSKSIYNNNWLSWYQQKPGQPPKLLIYDASDLASGVPSRFEGSGSGTEFTLTISDLECDDAATYYCAGGYSGDSDYAFGGGTEVVVK
notes: as for B2
